Experimental data as given in the supplement of paper PMC9170038.

Tested on: MS2 coat protein
Assay: apparent KD of MS2 coat protein; designed switch direction (-1 OFF switch, 1 ON switch): -1; higher = weaker reporter binding
Procedure, shortened: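 For each design, the apparent KD is the median over clusters of curves fitted to normalised cluster fluorescence. Clusters held RNA switches with common flanks, transcribed on Illumina chips by stalled E. coli RNA polymerase. These were titrated with SNAP-549-labelled MS2 coat protein, doubling from 0.7 or 1.5 nM to 3 µM, without input, with 200 uM small-molecule ligand, or with an oligonucleotide input.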

[1] = input ligand: microRNA oligo, concentration not stated
[2] = Eterna round: R95, input ligand: FMN 200 uM
[3] = Eterna round: R95, input ligand: microRNA oligo, concentration not stated
[4] = Eterna round: R95, input ligand: none

Row | Sequence | apparent KD of MS2 coat protein (input ligand: FMN 200 uM) [µM] | apparent KD of MS2 coat protein [1] [µM] | apparent KD of MS2 coat protein (input ligand: none) [µM] | apparent KD of MS2 coat protein [2] [µM] | apparent KD of MS2 coat protein [3] [µM] | apparent KD of MS2 coat protein [4] [µM]
1 | AAGACUCGCAAUAAGAACAAGCACUCCGAACUAUAAGUAACAUGAGGAUCACCCAUGUCAAGGGUGCCAAAGUCAAA [JR_Sensorv2_tov2_Sub302] (Eterna round: R96, puzzle: Sensor v2, turn-off variant 2) | 0.0154 | 0.016 | 0.0186 | – | – | –
2 | CUCUUACAUGAGGAUCACCCAUGUGAGGAUAUGCCCGGAGUAGCAGCAGAUCCUCUGGGCAGAAGGCACGUAGG [Eternabot (L1) Solution 98] (Eterna round: R97, puzzle: Exclusion 1) | 0.144 | – | 0.123 | – | – | –
3 | ACAUGUAUUGCAGGAUAUGGGACACAUGAGGAUCACCCAUGUGACCACAUGUAAUGCCACGGGUCUCAGAAGGGUAUGUACAUG [Ex NG2 #43] (Eterna round: R96, puzzle: Exclusion NG 2) | 0.117 | 0.0229 | 0.0266 | – | – | –
4 | UUCCGACAUGAGGAUCACCCAUGUAAGGAUAUGCACUAGAGGGCAAACCCUCUUAACGGCAGAAGGUGCAGGGA [Qudile] (Eterna round: R97, puzzle: Exclusion 1) | 0.115 | – | 0.015 | – | – | –
5 | CGCUCACAUGAGGAUCACCCAUGUCAGGAUAUCUCAGUGCAUCCACACGGACGCAUCAAGAGAAGGGACAAAAC [Vinxlusion 3 - Jieux - Exclusion 1] (Eterna round: R97, puzzle: Exclusion 1) | 0.189 | – | 0.112 | – | – | –
6 | UUGAGCAGACGGAGAUCCAACAUGAGGAUCACCCAUGUCUCAUAAGCUUUUUGUUCAUCUUAUUGUACCUUGGUGCU [Mat - Sensor v3 - turn-off var 1 - JL Mod - D23] (puzzle: Sensor v3, turn-off variant 1) | – | – | – | 0.047 | 0.00853 | 0.0405
7 | CCUCCGUAUAAGGAUAUCGUCCAGGAAACUGGACGAGAAGGUAUGACAUGAGGAUCACCCAUGUGAAAGUGAUG [Mod of Brourd 25 - Jieux - Exclusion 6] (Eterna round: R97, puzzle: Exclusion 6) | 0.212 | – | 0.0714 | – | – | –
8 | CGCAGACAUGAGGAUCACCCAUGUCAGGAUAUACCUCAUAGCACCAGCUUAUGUAAGGGUAGAAGGGACUUGGA [Eternabot (L1) Solution 81] (Eterna round: R97, puzzle: Exclusion 1) | 0.0861 | – | 0.0568 | – | – | –
9 | UUUAAUUUUUUUUUUUUACAAGCUUUUUGCUCGUCUUAUACAUGAGGAUCACCCAUGUAGGUGAGGAGUAAAUUAUC [JMF 62] (puzzle: Sensor v3, turn-off variant 2) | – | – | – | 0.0155 | 0.111 | 0.0148
10 | UUUAUGUGAGGAUAUGCGGGCGGGCGUGAAAAUGUUUGUUUGUAGAAGGUACAUGAGGAUCACCCAUGUAGUGG [-22, -21.6 kcal, 24% A] (Eterna round: R97, puzzle: Exclusion 4) | 0.18 | – | 0.0572 | – | – | –
11 | AAUUAGUCAGGAUAUACAUGAGGAUCACCCAUGUAAACUUUUAGUUUAAUUUGAAUGUGUAGAAGGGACAUUUA [Ex3 #47] (Eterna round: R97, puzzle: Exclusion 3) | 0.0189 | – | 0.0222 | – | – | –
12 | UAUUAGCAAGCAAAUGGGUACAUGAGGAUCACCCAUGUGCUCGUCUUAUAAGGUACUGUGACGAAAGUCACGGUCCC [mod--Eli7] (Eterna round: R97, puzzle: Sensor, turn-off variant 1) | 0.023 | – | 0.024 | – | – | –
13 | AGUACUAUCACGAAAGUGAUAGUACGAGGAGCAAGUGGAACAUGAGGAUCACCCAUGUCCUCAUCUGCUCGUCUUAU [salish99-s2-v2-x008] (Eterna round: R96, puzzle: Sensor v2, turn-off variant 2) | 0.0135 | 0.172 | 0.0163 | – | – | –
